The text below walks through data of patent US7662583B2, “Bioreactor containing cells expressing glycosyltransferase nucleic acids isolatable from Arabidopsis” (The University of York, priority 2003, dated 2010).

Series [1] is described as follows: Solubility of quercetin under buffer conditions used. Format: physicochemical. The following applies: buffer conditions used in the fermenter. The protocol:
In order to explore the potential of the whole-cell biocatalysts for large-scale production of glucosides in the absence of added UDP-glucose, transformed bacterial cells were cultured in a fermenter. This process enabled conditions to be controlled tightly throughout the production cycle and a direct comparison to be made of the efficiency of conversion of whole-cell UGT biocatalysis in a simple culture flask and an optimised fermenter system. UGT73B3 was chosen for the analysis, since preliminary experiments (Table 2) had shown formation of a single product, the 3-O-glucoside, at levels of 8.96 μg/ml following 24 h incubation. […] The Figure also illustrates the final level of glucoside was much higher than the soluble aglycone at time 0 h.

A short description of series [2]: UGT enzyme reaction with cytokinins. Format: biochemical. The protocol:
The assay mix (200 μl) contained 2 μg of recombinant protein, 100 mM Tris-HCl, pH 8.0, 5 mM UDP-glucose 0.5 mM ATP, 50 mM MgCl2, and 0.5 mM of cytokinin. The reaction was carried out at 30° C. for 3 h, and was quick-frozen and stored at −20° C. prior to the reverse-phase HPLC analysis
Reverse-phase HPLC (SpectraSYSTEM HPLC systems and UV6000LP Photodiode Array Detector, ThermoQuest) analysis was carried using a Columbus 5μ C18 column (250×4.60 mm, PHENOMENEX). Quercetin glucosides were separated from the aglycone by a linear gradient of 10-75% acetonitrile in H2O (all solution contained 0.1% trifluoroacetic acid) at 1 ml/mm over 20 mm and monitored at 370 nm. Cytokinin glucosides were separated from their aglycone by a liner gradient of 10-100% methanol in H2O (for N6-isopentenyladenine (iP), N6-benzyladenine and kinetin) or 10-60% methanol in H2O (for trans-zeatin and dihydrozeatin) at 1 ml/min over 20 mm. All solution contained 0.25% acetic acid and 0.04% triethylamine, trifluoroacetic acid. The separation was monitored at 206 nm and 252 nm. The identity of the products was confirmed by comparison with authentic gluco sides.
• 1. 7-N-glucoside (76C1, 76C2) • 2. 9-N-glucoside (76C1, 76C2) • 3. O-glucoside (only apply to trans-Zeatin and dihydrozeatin) (85A1 for trans-Zeatin; 85A1 and 73C5 for dihydrozeatin) Large Scale Fermentation

Series [3] in a line: UGT enzyme reaction with quercetin (recombinant UGTs, HPLC). It counts as biochemical, Arabidopsis. The following applies: 0.5 mM quercetin, 5 mM UDP-glucose, 30° C.; for Specific activity (nkat/mg protein) 3-O-glc: quercetin glucosylated at 3-OH; for Specific activity (nkat/mg protein) 3′-O-glc: quercetin glucosylated at 3′-OH; for Specific activity (nkat/mg protein) 4′-O-glc: quercetin glucosylated at 4′-OH; for Specific activity (nkat/mg protein) 7-O-glc: quercetin glucosylated at 7-OH. The procedure, abridged:
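Recombinant Arabidopsis UGTs (2 μg) incubated with 0.5 mM quercetin and 5 mM UDP-glucose in 100 mM Tris-HCl pH 7.0 at 30 °C for 1 h. Quercetin glucosides separated from aglycone by reverse-phase C18 HPLC (acetonitrile gradient, 0.1% TFA), detected at 370 nm.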

Series [4] can be described thus: Whole-cell bioreactor assay in fermentor system. Format: cell-based, E. coli. The protocol:
A 6 L glass autoclavable fermentor system (Applikon Biotechnology Ltd.) was used for large-scale analysis of UGT whole-cell biocatalysts. E. coli BL21 overnight culture (40 ml) expressing UGT was transferred into the fermentor system containing 2 L of LB medium previously equilibrated at 30° C., pH 7.4. The dissolved O2 level was maintained at 95% for 1 h and was decreased to 60% throughout the remaining process. When the culture reached an optical density at 0.2, the temperature was lowered to 20° C. 0.1 mM of isopropyl-1-thio-β-D-galactopyranoside and 2 g of quercetin were added after the bacterial culture reached an optical density at 0.6. Samples were harvested at intervals and the bacterial cells were removed by centrifugation. The resulting supernatant fractions (culture medium) were analysed with HPLC.
In order to explore the potential of the whole-cell biocatalysts for large-scale production of glucosides in the absence of added UDP-glucose, transformed bacterial cells were cultured in a fermenter. This process enabled conditions to be controlled tightly throughout the production cycle and a direct comparison to be made of the efficiency of conversion of whole-cell UGT biocatalysis in a simple culture flask and an optimised fermenter system. […]

The nature of series [5]: Whole-cell biocatalyst assay, E. coli expressing UGT in culture medium. Format: cell-based. The following applies: E. coli, 2x YT medium, 0.1 mM IPTG, 0.1 mM quercetin, 24 h, no added UDP-glucose. The protocol:
FIG. 14 Whole-cell biocatalyst assay using UGT71C1. E. coli cells expressing recombinant were used in the biocatalyst assay. After incubation with 0.1 mM quercetin and 0.1 mM IPTG, cells were collected by centrifugation, extracted with 80% methanol and both the cell extracts (pellet) and culture medium (supernatant) were analysed using HPLC. (A) Changes in the combined amounts of aglycone/glucoside over a time-course of 0-48 h. (B) Changes in the level of different glucosides and aglycone in the culture medium over the same time-course.
Using the foundation established in the preceding example, we went on to investigate the potential of E. coli expressing plant UGTs as whole-cell biocatalysts to synthesise glucosides of quercetin. In the first instance, we used E. coli grown in 75 ml of standard culture medium. […] Table 2 describes results in which 7 different UGTs are expressed in E. coli and the identity and quantity of different glucosides recovered in the medium were analysed by HPLC. […] There was considerable variation in the level of different glucosides synthesised by the cells, although even under these non-optimised conditions, each of the four monoglucosides and two di-O-glucosides could be formed.

Setting [6] is: cytokinins, 0.5 mM, 30° C., 3 h.

Regarding `O=c1c(O)c(-c2ccc(O)c(O)c2)oc2cc(O)cc(O)c12` [Quercetin, quercetin], the solubility result in series [1] is reported as “relatively insoluble”.

B1: UGT76C2: glycosyltransferase, FIG. 10, glucosylates cytokinins (protein, listed as Arabidopsis thaliana)
chain: MEEKRNGLRVILFPLPLQGCINPMLQLANILHVRGFSITVIHTRFNAPKASSHPLFTFLQIPDGLSETEIQDGVMSLLAQINLNAESPFRDCLRKVLLESKESERVTCLIDDCGWLFTQSVSESLKLPRLVLCTFKATFFNAYPSLPLIRTKGYLPVSESEAEDSVPEFPPLQKRDLSKVFGEFGEKLDPFLHAVVETTIRSSGLIYMSCEELEKDSLTLSNEIFKVPVFAIGPFHSYFSASSSSLFTQDETCILWLDDQEDKSVIYVSLGSVVNITETEFLEIACGLSNSKQPFLWVVRPGSVLGAKWIEPLSEGLVSSLEEKGKIVKWAPQQEVLAHRATGGFLTHNGWNSTLESICEGVPMICLPGGWDQMLNSRFVSDIWKIGIHLEGRIEKKEIEKAVRVLMEESEGNKIRERMKVLKDEVEKSVKQGGSSFQSIETLANHILLL
With B1, in series [2] (setting [6]), the “Cytokinin products formed by the UGTs: 7-N-glucoside” value was 7-N-glucoside and the “Cytokinin products formed by the UGTs: 9-N-glucoside” value was 9-N-glucoside.

B2: UGT73C5: Arabidopsis recombinant glycosyltransferase, FIG. 11 (protein, listed as Arabidopsis thaliana)
chain: MVSETTKSSPLHFVLFPFMAQGHMIPMVDIARLLAQRGVIITIVTTPHNAARFKNVLNRAIESGLPINLVQVKFPYLEAGLQEGQENIDSLDTMERMIPFFKAVNFLEEPVQKLIEEMNPRPSCLISDFCLPYTSKIAKKFNIPKILFHGMGCFCLLCMHVLRKNREILDNLKSDKELFTVPDFPDRVEFTRTQVPVETYVPAGDWKDIFDGMVEANETSYGVIVNSFQELEPAYAKDYKEVRSGKAWTIGPVSLCNKVGADKAERGNKSDIDQDECLKWLDSKKHGSVLYVCLGSICNLPLSQLKELGLGLEESQRPFIWVIRGWEKYKELVEWFSESGFEDRIQDRGLLIKGWSPQMLILSHPSVGGFLTHCGWNSTLEGITAGLPLLTWPLFADQFCNEKLVVEVLKAGVRSGVEQPMKWGEEEKIGVLVDKEGVKKAVEELMGESDDAKERRRRAKELGDSAHKAVEEGGSSHSNISFLLQDIMELAEPNN
B2: in series [2] (substrate dihydrozeatin), the “Cytokinin products formed by the UGTs: O-glucoside” value is reported as “O-glucoside”. Further, in series [3], the “Specific activity (nkat/mg protein) 3-O-glc” value was “— (Activity lower than 0.02 nkat/mg protein has been considered as trace activity and is not shown in the Table.)”; the “Specific activity (nkat/mg protein) 3′-O-glc” value is “— (Activity lower than 0.02 nkat/mg protein has been considered as trace activity and is not shown in the Table.)”; the “Specific activity (nkat/mg protein) 4′-O-glc” value is listed as 0.25 nkat/mg protein; the “Specific activity (nkat/mg protein) 7-O-glc” value amounted to 0.11 nkat/mg protein.

B3: UGT73B3: Arabidopsis recombinant glycosyltransferase (protein, UniProt Q8W491 1-481, looked up)
UDP-glycosyltransferase 73B3: MSSDPHRKLHVVFFPFMAYGHMIPTLDMAKLFSSRGAKSTILTTPLNSKIFQKPIERFKNLNPSFEIDIQIFDFPCVDLGLPEGCENVDFFTSNNNDDRQYLTLKFFKSTRFFKDQLEKLLETTRPDCLIADMFFPWATEAAEKFNVPRLVFHGTGYFSLCSEYCIRVHNPQNIVASRYEPFVIPDLPGNIVITQEQIADRDEESEMGKFMIEVKESDVKSSGVIVNSFYELEPDYADFYKSVVLKRAWHIGPLSVYNRGFEEKAERGKKASINEVECLKWLDSKKPDSVIYISFGSVACFKNEQLFEIAAGLETSGANFIWVVRKNIGIEKEEWLPEGFEERVKGKGMIIRGWAPQVLILDHQATCGFVTHCGWNSLLEGVAAGLPMVTWPVAAEQFYNEKLVTQVLRTGVSVGAKKNVRTTGDFISREKVVKAVREVLVGEEADERRERAKKLAEMAKAAVEGGSSFNDLNSFIEEFTS
Regarding B3, the “yield of 3-O-glucoside, fermenter versus culture flask” value in series [4] (99.3 μg/ml at 20 h versus 8.96 μg/ml at 24 h) is reported as 10 fold. The “yield of 3-O-glucoside in the culture” value in series [4] (fermenter system, 20 h) was 99.3 µg/mL. The “Culture medium (μg/ml in supernatant) 3-O-glc” value in series [5] was 8.96 µg/mL. In addition, in series [3], the “Specific activity (nkat/mg protein) 3-O-glc” value came out at 1.57 nkat/mg protein; the “Specific activity (nkat/mg protein) 3′-O-glc” value is “— (Activity lower than 0.02 nkat/mg protein has been considered as trace activity and is not shown in the Table.)”; the “Specific activity (nkat/mg protein) 4′-O-glc” value was “— (Activity lower than 0.02 nkat/mg protein has been considered as trace activity and is not shown in the Table.)”; the “Specific activity (nkat/mg protein) 7-O-glc” value is “— (Activity lower than 0.02 nkat/mg protein has been considered as trace activity and is not shown in the Table.)”.

B4: UGT85A1: glycosyltransferase, FIG. 12, glucosylates cytokinins (protein, listed as Arabidopsis thaliana)
chain: MGSQIIHNSQKPHVVCVPYPAQGHINPMMRVAKLLHARGFYVTFVNTVYNHNRFLRSRGSNALDGLPSFRFESIADGLPETDMDATQDITALCESTMKNCLAPFRELLQRINAGDNVPPVSCIVSDGCMSFTLDVAEELGVPEVLFWTTSGCAFLAYLHFYLFIEKGLCPLKDESYLTKEYLEDTVIDFIPTMKNVKLKDIPSFIRTTNPDDVMISFALRETERAKRASAIILNTFDDLEHDVVHAMQSILPPVYSVGPLHLLANREIEEGSEIGMMSSNLWKEEMECLDWLDTKTQNSVIYINFGSITVLSVKQLVEFAWGLAGSGKEFLWVIRPDLVAGEEAMVPPDFLMETKDRSMLASWCPQEKVLSHPAIGGFLTHCGWNSILESLSCGVPMVCWPFFADQQMNCKFCCDEWDVGIEIGGDVKREEVEAVVRELMDGEKGKKMREKAVEWQRLAEKATEHKLGSSVMNFETVVSKFLLGQKSQD
For B4, the “Cytokinin products formed by the UGTs: O-glucoside” value in series [2] (substrate dihydrozeatin) and in series [2] (substrate trans-Zeatin) was “O-glucoside” throughout.
